In paper PMC6212786 one finds Kd data, which are given here for two molecules.

Holding throughout (assay): fluorescence anisotropy
The target of data set [1] is Human DNA ligase 1 (hLig1) (human, UniProt P18858 233-919).
Data set [2] concerns the target T1, T4 DNA ligase DBD fragment (Bacteriophage T4 (ATCC), UniProt P00970 1-129).
T1 sequence: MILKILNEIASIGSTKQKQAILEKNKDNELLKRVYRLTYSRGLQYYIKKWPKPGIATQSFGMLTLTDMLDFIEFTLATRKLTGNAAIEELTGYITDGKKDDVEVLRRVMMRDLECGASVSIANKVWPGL

For data set [3], the target named is T2, T4 DNA ligase (gp30), full-length wild type (Bacteriophage T4 (ATCC), UniProt P00970 1-487).
T2 sequence: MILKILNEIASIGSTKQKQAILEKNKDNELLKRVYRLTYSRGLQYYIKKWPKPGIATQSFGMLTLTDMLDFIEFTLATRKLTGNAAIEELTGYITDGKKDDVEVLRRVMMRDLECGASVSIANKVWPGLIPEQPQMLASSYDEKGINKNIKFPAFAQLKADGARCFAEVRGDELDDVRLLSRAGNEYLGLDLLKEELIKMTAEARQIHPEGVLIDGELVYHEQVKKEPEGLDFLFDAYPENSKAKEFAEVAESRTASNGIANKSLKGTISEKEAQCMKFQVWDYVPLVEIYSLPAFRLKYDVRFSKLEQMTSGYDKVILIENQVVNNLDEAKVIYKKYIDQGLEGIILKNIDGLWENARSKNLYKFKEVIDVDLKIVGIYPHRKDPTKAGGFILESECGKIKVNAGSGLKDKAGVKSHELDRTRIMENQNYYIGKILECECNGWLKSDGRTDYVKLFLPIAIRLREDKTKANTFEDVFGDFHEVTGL

The target of data set [4] is T3, T4 DNA ligase NTase-OB fragment (2CT) (Bacteriophage T4 (ATCC), UniProt P00970 136-487).
T3 sequence: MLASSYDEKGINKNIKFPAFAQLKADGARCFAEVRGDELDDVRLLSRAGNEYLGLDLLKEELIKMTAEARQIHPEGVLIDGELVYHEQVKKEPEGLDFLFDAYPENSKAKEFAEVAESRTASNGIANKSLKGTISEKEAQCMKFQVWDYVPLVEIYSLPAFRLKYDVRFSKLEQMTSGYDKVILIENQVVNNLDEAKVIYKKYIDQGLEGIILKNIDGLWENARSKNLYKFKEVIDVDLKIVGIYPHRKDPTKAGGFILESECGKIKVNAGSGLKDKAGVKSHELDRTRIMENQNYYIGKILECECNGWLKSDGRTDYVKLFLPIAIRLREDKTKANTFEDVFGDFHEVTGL

Sequence of Human DNA ligase 1 (hLig1) (P18858 233-919): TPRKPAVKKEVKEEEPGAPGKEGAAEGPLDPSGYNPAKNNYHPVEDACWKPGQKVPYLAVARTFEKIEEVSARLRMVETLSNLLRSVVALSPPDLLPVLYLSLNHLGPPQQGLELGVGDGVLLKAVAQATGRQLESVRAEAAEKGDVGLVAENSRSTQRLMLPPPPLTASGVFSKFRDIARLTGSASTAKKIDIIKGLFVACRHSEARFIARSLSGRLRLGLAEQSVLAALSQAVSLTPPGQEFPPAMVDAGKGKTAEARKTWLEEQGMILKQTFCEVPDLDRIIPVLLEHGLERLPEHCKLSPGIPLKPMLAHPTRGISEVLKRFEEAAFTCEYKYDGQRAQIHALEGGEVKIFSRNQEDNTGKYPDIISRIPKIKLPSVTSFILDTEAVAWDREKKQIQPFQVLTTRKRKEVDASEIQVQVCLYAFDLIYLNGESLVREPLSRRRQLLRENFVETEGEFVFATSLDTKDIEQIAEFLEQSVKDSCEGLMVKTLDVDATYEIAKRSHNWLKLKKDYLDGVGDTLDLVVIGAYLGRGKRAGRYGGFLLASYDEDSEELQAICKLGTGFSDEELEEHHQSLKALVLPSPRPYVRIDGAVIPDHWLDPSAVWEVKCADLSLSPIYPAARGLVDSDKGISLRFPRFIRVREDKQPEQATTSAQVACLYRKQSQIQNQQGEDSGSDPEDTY

B1: nicked 32-bp dsDNA probe (dsDNA)
DNA 1: GGTAGCCACAGCCAGTCAGCCGATTGCGGGAC
DNA 2: GTCCCGCAATCGGCTG
DNA 3: ACTGGCTGTGGCTACC
modifications: 5'-phosphate on S6 at the nick
What is called Kd is a measure of binding affinity in units of concentration. For B1, the equilibrium dissociation constant (Kd) was 7.7 µM in data set [1], 138 µM in data set [2], 6.3 µM in data set [3] and 23 µM in data set [4].

B2: intact (unnicked) 32-bp dsDNA probe (dsDNA)
DNA 1: B1 DNA 1
DNA 2: GTCCCGCAATCGGCTGACTGGCTGTGGCTACC
Consider B2, for which the Kd amounted to 11 µM in data set [1], 119 µM in data set [2], 6.6 µM in data set [3] and 17 µM in data set [4].
